# Measurements reported in patent publication US20180292408A1.
# Assays:
# [1] = biological target: β-gal-Core-192 (HCV-241) (hepatitis C virus); test: sandwich ELISA, C7-50 capture, llama anti-serum detection
# [2] = biological target: β-gal-Core-192 (HCV-241) (hepatitis C virus); test: sandwich ELISA, C7-50 coated, detected with llama serum and HRP-goat-anti-llama antibody
# [3] = biological target: β-gal-Core-192 (HCV-241) (hepatitis C virus); test: lateral flow immunoassay, C7-50 labelled with colloidal gold, purified rabbit antibody on the test line
# β-gal-Core-192 (HCV-241) (hepatitis C virus), sequence (P00722 2-1024): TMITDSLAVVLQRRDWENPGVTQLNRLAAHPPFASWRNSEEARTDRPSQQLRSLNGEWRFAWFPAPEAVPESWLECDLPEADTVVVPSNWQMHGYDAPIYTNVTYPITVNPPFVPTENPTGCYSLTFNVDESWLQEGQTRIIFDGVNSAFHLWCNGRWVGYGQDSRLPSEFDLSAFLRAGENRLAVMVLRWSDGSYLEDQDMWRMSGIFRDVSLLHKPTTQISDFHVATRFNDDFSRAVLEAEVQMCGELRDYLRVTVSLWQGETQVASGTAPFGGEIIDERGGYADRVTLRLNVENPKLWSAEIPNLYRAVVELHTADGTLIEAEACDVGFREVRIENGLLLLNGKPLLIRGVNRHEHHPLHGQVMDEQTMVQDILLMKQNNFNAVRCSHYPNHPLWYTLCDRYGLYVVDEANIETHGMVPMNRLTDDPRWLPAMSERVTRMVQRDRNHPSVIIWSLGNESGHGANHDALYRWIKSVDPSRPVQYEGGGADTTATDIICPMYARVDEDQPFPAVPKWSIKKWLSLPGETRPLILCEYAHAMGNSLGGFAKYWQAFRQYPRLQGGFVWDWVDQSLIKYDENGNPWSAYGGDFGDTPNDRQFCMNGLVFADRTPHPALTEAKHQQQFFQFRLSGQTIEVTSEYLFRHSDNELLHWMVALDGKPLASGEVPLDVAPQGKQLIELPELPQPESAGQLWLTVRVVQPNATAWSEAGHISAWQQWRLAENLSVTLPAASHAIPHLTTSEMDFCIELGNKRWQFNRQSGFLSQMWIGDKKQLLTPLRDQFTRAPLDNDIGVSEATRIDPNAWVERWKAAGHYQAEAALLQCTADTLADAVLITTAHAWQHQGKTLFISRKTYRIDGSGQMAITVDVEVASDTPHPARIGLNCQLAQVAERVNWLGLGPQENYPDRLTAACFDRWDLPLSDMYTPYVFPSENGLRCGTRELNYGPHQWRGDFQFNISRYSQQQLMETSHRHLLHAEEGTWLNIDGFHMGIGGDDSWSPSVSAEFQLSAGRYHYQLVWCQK
substance,measurement,setting,value
"mouse monoclonal antibody (clone C7-50), Abcam",detection limit of the sandwich ELISA,[1],< 40 ng/mL
same,OD450 at 0 ng/ml antigen (background),[2],0.181 OD450
same,OD450 at 8 ng/ml antigen,[2],0.221 OD450
same,OD450 at 40 ng/ml antigen,[2],0.214 OD450
same,OD450 at 200 ng/ml antigen,[2],0.3 OD450
same,OD450 at 1000 ng/ml antigen,[2],0.494 OD450
same,OD450 at 5000 ng/ml antigen,[2],1.74 OD450
same,OD450 at 25000 ng/ml antigen,[2],2.18 OD450
same,OD450 at 125000 ng/ml antigen,[2],2.27 OD450
same,antigen concentration detected in LFIA,[3],0.3 ng/µL
